Here are results for three molecules from article PMC8885657, “HPV infection alters vaginal microbiome through down-regulating host mucosal innate peptides used by Lactobacilli as amino acid sources” (Nature Communications, 2022).

Experiment [1] relates to E-cadherin (CDH1). Put plainly: Reactivation of hypermethylated CDH1 gene (Western blot). It counts as cell-based, human. The conditions noted are these: 5 µM. Here is the method:
Immortalized keratinocytes (1.5 × 10^5 cells per well of a six-well plate) were transfected with ON-TARGETplus SMARTpool siRNAs targeting p65, β-catenin or c-Myc (Dharmacon, Lafayette, CO, USA) using Oligofectamine Transfection Reagent (Invitrogen). Oligos targeting the firefly luciferase gene (siGL2) were used as control. For each experiment, siRNA (40 nM) and 6 µl of Oligofectamine were diluted in 1 ml of Optimem (Invitrogen). The cells were incubated with the mixture for 4 h at 37 °C. Twenty-four hours after transfection, cells were either harvested or stimulated with LPS (2 µg/ml) or TNFα (20 ng/ml) and experiments were performed. For the chemical inhibition of NF-kB or c-Myc, BAY 11-7082 (5 µM, Sigma Aldrich) or 10058-F4 (40 µM, Selleckchem, Houston, TX, USA) was added to cell cultures before RNA expression analyses. […]
After extraction in 1% SDS buffer (total extraction) containing protease and phosphatase inhibitors (Roche) and quantification (BCA protein assay kit; Pierce, Rockford, IL, USA), twenty micrograms of proteins were separated on 10% SDS-PAGE and transferred to PVDF membranes (Roche). […] The protein bands were detected using an enhanced chemiluminescence system (Westar ECL-Sun, Cyanagen, Bologna, Italy) and finally quantified by densitometry using ImageJ software. […]
A general note: In western blotting, separated proteins are transferred to a membrane and probed.

Experiment [2] has as its system murine vaginal microbiota. The experiment can be described thus: 16S-based metagenomics of cervico-vaginal lavage samples. The format is in vivo, mouse. As to conditions: FVB/n mice treated (n=12) or not (n=8), subcutaneous implant 1-2 µg/24h, 12 weeks. From the text:
FVB/n mice expressing HPV16 under the control of the keratin 14 promoter (K14-HPV16 transgenic mice) were obtained from the National Cancer Institute Mouse Repository. Given that (pre)cancer development within the lower genital tract has been previously shown to be hormone-dependent in this model[75],[76], 6 to 8-week-old female mice (n = 12 per condition) were subcutaneously implanted with a Belma’s E2 implant (E2-M/90, Belma Technologies, Liege, Belgium), allowing reproducible long-term release of 17β-estradiol (1–2 µg/24 h) for 90 days[77]. A similar procedure was performed with control (FVB/n) mice. […]
Mice were randomly distributed in cages and housed under standard conditions [12 h light/12 h dark cycle, ad libitum access to food and water, constant temperature (19–21 °C) and humidity (40–50%)] in the GIGA-Mouse facility platform (University of Liege) during the entire course of the study. […] Seven µl from each samples were spread on a glass slide, fixed/stained using Diff-Quick reagents (Medion Diagnostics, Düdingen, Switzerland) and the estrous cycle stage was determined using established criteria.
DNA was isolated from cervico-vaginal lavage samples using NucleoSpin Tissue kit (Macherey Nagel, Düren, Germany). […] Of note, 7 random nucleotides were added to the 5′ region of forward primer to increase complexity and, therefore, improve sequence read quality. […]

Experiment [3] relates to Gardnerella vaginalis. Put plainly: Antimicrobial assay (surviving colonies, CFU count). The format is cell-based. As to conditions: peptide 1–10 µg/ml, 5 × 10^4 CFU/ml, 10 mM sodium phosphate buffer, 6 h, 37 °C; plated on Columbia Blood agar; n = 5. The procedure:
(§1) Bacterial strains Lactobacillus crispatus DSM 20356, Lactobacillus iners CIP 105923 and Garnerella vaginalis CCUG 43336 were kindly provided by the Department of Clinical Microbiology at University Hospital Center of Liege. Lactobacillus jensenii LMG 6414 was obtained from BCCM/LMG Bacteria Collection (University of Gent, Belgium). Log-phase bacteria were grown on Columbia agar with 5% sheep blood (Becton Dickinson, Franklin Lakes, NJ, USA) at 37 °C in a humidified CO2 atmosphere (Lactobacilli) or in anaerobic jars (G. vaginalis). To analyze the antimicrobial effect of innate peptides expressed by vaginal/cervical mucosa, 5 × 10^4 colony-forming unit (CFU)/ml were mixed with different peptides (concentration range: 1–10 µg/ml) in 10 mM sodium phosphate buffer (SPB) (final volume 100 µl) and incubated for 45 min to 9 h at 37 °C. Where indicated, the peptides were incubated with 2 mM dithiothreitol (DTT) (Invitrogen, Carlsbad, CA, USA) for 30 min at 37 °C before adding the bacteria. In indicated experiments, incubation was carried out in potassium phosphate buffer (KPB) (pH: 7.4, 10 mM). The following peptides were tested: HβD1 (PeptaNova, Sandhausen, Germany), HβD2 (PeptaNova), HβD3 (PeptaNova), HβD4 (PeptaNova), HD-5 (PeptaNova), HD-6 (PeptaNova), elafin (PeptaNova), S100A7 (Abnova, Taipei City, Taiwan) and SLPI (R&D Systems, Minneapolis, MI, USA). Bacterial suspensions were then plated on Columbia Blood agar plates for 24–48 h to determine CFU. High-resolution images for each condition were taken. Colony detection and counts were finally performed using ImageJ software (NIH, Bethesda, MD, USA) and verified by manual counting.

The subject of experiment [4] is Lactobacillus crispatus DSM 20356. The experiment is described as above. It counts as cell-based. The conditions noted are these: peptide 1–10 µg/ml, 5 × 10^4 CFU/ml, 10 mM sodium phosphate buffer, 6 h, 37 °C; plated on Columbia Blood agar; n = 3. The procedure:
as §1

The test system of experiment [5] is Lactobacillus iners CIP 105923. Described as above. It counts as cell-based. The conditions noted are these: peptide 1–10 µg/ml, 5 × 10^4 CFU/ml, 10 mM sodium phosphate buffer, 6 h, 37 °C; plated on Columbia Blood agar; n = 3. Here is the method:
as §1

Experiment [6] relates to Lactobacillus jensenii LMG 6414. Described as above. It counts as cell-based. As to conditions: peptide 1–10 µg/ml, 5 × 10^4 CFU/ml, 10 mM sodium phosphate buffer, 6 h, 37 °C; plated on Columbia Blood agar; n = 3. The procedure: as §1

With `Nc1ncn([C@H]2C[C@H](O)[C@@H](CO)O2)c(=O)n1` [5-aza-deoxycytidine], the “CDH1 (E-cadherin) expression, Western blot” value in experiment [1] was “reactivation of silenced CDH1 gene”.

Regarding `C[C@]12CC[C@@H]3c4ccc(O)cc4CC[C@H]3[C@@H]1CC[C@@H]2O` [17β-estradiol], in experiment [2], the “composition of murine vaginal microbiota (α- and β-diversity, richness, evenness)” value is listed as “not altered”.

B1: HD-5: epithelial member of the defensin family, host defense peptide (PeptaNova) (peptide, UniProt Q01523 20-94, looked up)
Defensin alpha 5: ESLQERADEATTQKQSGEDNQDLAISFAGNGLSALRTSGSQARATCYCRTGRCATRESLSGVCEISGRLYRLCCR
Turning to B1, the “effect on bacterial growth/survival (percentage of surviving colonies)” value in experiment [3], in experiment [4], in experiment [5] and in experiment [6] was “inhibit the growth” each time.
